Experimental data reported in US20210087288A1.

Experiments:
Human FcRn (human) = Human FcRn (human) (UniProt P55899); experiment: SPR (BIAcore T200), antibody captured via anti-Fab, FcRn injected, pH 6, steady state
[1] = target: Cynomolgus monkey FcRn (cynomolgus monkey) (UniProt Q8SPV9); experiment: as above
Chain of Cynomolgus monkey FcRn (cynomolgus monkey) (Q8SPV9 24-297 limits assumed): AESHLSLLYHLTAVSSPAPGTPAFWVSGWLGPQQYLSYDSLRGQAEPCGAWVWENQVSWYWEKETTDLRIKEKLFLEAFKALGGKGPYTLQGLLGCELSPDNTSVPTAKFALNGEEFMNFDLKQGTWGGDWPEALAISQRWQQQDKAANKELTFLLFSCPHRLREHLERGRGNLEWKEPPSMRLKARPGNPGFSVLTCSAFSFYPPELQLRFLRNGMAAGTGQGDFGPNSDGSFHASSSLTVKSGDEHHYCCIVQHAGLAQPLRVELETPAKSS

Chain of Human FcRn (human) (P55899 24-297 limits assumed): as the sequence (Q8SPV9 24-297 limits assumed) above, with D39N, Q44E, S99G, G189S, N190S, M217L, T269S counted along it

Kd (Human FcRn (human)): 700 nM
Kd [1]: 900 nM
Substance: Anti-gD.hIgG1 (antibody)
